Results published in article PMC11592734.

Experiments:
[1] = target: whole-length cardiac myosin isolated from mice hearts (mouse) (UniProt Q91Z83); test: co-sedimentation; whole-length cardiac myosin (10 µM) incubated with increasing concentration (0-10 µM) of hC0-C2; Michaelis-Menten binding fit
[2] = target: wild-type recombinant human cMyBP-C C0-C2 region (hC0-C2^WT) (human); test: ITC; 20 µM hC0-C2 titrated against 350 µM hS2; n = 3
[3] = target: wild-type recombinant human cMyBP-C C0-C2 region (hC0-C2^WT) (human); test: solid-phase binding assay; 20 µM hC0-C2 incubated with increasing concentrations of hS2 (0-20 µM); binding of hS2 read by fluorescence intensity; Michaelis-Menten binding fit; n = 3
[4] = target: recombinant human cMyBP-C C0-C2 region with D389V (hC0-C2^D389V) (human); test: as above

UniProt Q91Z83, sequence (Q91Z83 whole entry, chain 1 of 3): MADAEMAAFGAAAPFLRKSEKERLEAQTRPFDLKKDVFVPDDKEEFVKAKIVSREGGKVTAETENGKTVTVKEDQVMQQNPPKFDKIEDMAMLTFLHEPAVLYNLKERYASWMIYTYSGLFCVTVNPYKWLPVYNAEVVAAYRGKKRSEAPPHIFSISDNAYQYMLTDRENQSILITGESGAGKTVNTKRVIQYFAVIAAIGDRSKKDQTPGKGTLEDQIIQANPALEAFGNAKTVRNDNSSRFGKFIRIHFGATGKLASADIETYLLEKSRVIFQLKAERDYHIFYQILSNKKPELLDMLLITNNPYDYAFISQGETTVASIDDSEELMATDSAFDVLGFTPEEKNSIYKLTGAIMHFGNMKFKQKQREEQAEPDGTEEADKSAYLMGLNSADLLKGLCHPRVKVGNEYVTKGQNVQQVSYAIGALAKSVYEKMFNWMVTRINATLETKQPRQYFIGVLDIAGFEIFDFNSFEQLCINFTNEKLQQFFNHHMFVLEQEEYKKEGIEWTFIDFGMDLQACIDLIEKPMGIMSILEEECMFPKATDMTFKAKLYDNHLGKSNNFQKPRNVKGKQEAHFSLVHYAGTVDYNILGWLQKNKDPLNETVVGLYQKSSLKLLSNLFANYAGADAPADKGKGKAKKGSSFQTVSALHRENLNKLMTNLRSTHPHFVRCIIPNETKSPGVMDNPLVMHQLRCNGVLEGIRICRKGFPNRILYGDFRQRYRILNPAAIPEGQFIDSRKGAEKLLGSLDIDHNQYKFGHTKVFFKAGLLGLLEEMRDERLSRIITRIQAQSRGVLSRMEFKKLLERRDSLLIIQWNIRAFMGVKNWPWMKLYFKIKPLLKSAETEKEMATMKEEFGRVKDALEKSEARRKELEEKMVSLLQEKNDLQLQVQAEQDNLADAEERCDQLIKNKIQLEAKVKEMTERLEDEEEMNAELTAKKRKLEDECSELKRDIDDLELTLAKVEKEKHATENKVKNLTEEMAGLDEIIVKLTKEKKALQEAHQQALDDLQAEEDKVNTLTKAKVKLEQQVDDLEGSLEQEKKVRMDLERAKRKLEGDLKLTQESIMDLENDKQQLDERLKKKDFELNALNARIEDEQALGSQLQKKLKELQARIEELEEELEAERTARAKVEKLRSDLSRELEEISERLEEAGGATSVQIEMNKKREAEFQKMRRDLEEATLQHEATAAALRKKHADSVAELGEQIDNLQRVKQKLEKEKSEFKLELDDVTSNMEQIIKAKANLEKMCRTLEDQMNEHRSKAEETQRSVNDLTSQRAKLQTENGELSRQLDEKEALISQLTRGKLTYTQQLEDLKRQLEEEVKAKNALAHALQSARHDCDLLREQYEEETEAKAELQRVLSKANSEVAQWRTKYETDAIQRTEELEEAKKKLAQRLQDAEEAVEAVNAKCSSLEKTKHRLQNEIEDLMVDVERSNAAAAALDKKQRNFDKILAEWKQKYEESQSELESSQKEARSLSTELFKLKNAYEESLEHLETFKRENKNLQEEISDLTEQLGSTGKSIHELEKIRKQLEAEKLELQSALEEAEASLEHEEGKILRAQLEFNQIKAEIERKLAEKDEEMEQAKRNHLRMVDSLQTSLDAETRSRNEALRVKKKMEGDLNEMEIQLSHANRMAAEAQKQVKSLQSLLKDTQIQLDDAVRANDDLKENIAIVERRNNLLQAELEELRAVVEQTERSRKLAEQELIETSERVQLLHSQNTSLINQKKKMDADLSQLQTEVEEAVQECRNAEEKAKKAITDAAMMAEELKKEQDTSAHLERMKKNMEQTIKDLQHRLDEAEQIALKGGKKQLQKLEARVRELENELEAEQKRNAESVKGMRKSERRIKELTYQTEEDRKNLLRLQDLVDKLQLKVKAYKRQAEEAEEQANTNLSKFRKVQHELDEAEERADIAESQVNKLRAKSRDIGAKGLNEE
UniProt Q91Z83, sequence (P09542 2-204, chain 2 of 3, further chain): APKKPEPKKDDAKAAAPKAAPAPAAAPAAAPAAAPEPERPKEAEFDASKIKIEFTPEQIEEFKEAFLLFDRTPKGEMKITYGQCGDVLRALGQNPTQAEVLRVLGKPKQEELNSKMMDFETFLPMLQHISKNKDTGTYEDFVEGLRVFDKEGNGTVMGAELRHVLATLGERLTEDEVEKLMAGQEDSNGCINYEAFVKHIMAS
UniProt Q91Z83, sequence (P51667 2-166, chain 3 of 3, further chain): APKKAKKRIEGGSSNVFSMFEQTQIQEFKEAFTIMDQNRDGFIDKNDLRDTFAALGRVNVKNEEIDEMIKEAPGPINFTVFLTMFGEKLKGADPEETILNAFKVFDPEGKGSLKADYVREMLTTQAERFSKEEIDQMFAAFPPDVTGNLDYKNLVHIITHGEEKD

Kd [1] [nM]	stoichiometry N [2]	Kd [3] [nM]	Kd [4] [nM]	Substance
900	–	–	–	recombinant human cMyBP-C C0-C2 region with D389V (hC0-C2^D389V) (domain or fragment)
–	0.96	4950	4730	recombinant proximal (126 residues) human myosin S2 (hS2) (domain or fragment)
840	–	–	–	wild-type recombinant human cMyBP-C C0-C2 region (hC0-C2^WT) (domain or fragment)
